How the values were obtained:
[1] = immunofluorescence, surface localisation in COS7 cells; conditions: glycan lost; control: HA-Fzd6wt
[2] = in vitro vesicle formation assay, immunoblot; conditions: glycan lost; control: Fzd6WT

B1: Frizzled-6 (Fzd6): N38A, N352A (protein)
parent chain: MERSPFLLACILLPLVRGHSLFTCEPITVPRCMKMTYNMTFFPNLMGHYDQGIAAVEMGHFLHLANLECSPNIEMFLCQAFIPTCTEQIHVVLPCRKLCEKIVSDCKKLMDTFGIRWPEELECNRLPHCDDTVPVTSHPHTELSGPQKKSDQVPRDIGFWCPKHLRTSGDQGYRFLGIEQCAPPCPNMYFKSDELDFAKSFIGIVSIFCLCATLFTFLTFLIDVRRFRYPERPIIYYSVCYSIVSLMYFVGFLLGNSTACNKADEKLELGDTVVLGSKNKACSVVFMFLYFFTMAGTVWWVILTITWFLAAGRKWSCEAIEQKAVWFHAVAWGAPGFLTVMLLAMNKVEGDNISGVCFVGLYDLDASRYFVLLPLCLCVFVGLSLLLAGIISLNHVRQVIQHDGRNQEKLKKFMIRIGVFSGLYLVPLVTLLGCYVYELVNRITWEMTWFSDHCHQYRIPCPYQANPKARPELALFMIKYLMTLIVGISAVFWVGSKKTCTEWAGFFKRNRKRDPISESRRVLQESCEFFLKHNSKVKHKKKHGAPGPHRLKVISKSMGTSTGATTNHGTSAMAIADHDYLGQETSTEVHTSPEASVKEGRADRANTPSAKDRDCGESAGPSSKLSGNRNGRESRAGGLKERSNGSEGAPSEGRVSPKSSVPETGLIDCSTSQAASSPEPTSLKGSTSLPVHSASRARKEQGAGSHSDA
localisation_or_trafficking [1]: decreases
localisation_or_trafficking [2]: decreases

— PMC7335806
